From patent US9073989B2, “Antibiotic comprising an antibody mimetic, its preparation methods and uses thereof” (PROTEIN DESIGN LAB, LTD, priority 2011, dated 2015)
“Also recorded” adds a separate entry of the source.

B1: PMC-AM1: Fusion of antibody mimetic AM1 (VHCDR1-VHFR2-VLCDR3, Seq ID No.2) to C-terminus of Colicin Ia; Seq ID No.6 (protein)
chain: SDPVRITNPGAESLGYDSDGHEIMAVDIYVNPPRVDVFHGTPPAWSSFGNKTIWGGNEWVDDSPTRSDIEKRDKEITAYKNTLSAQQKENENKRTEAGKRLSAAIAAREKDENTLKTLRAGNADAADITRQEFRLLQAELREYGFRTEIAGYDALRLHTESRMLFADADSLRISPREARSLIEQAEKRQKDAQNADKKAADMLAEYERRKGILDTRLSELEKNGGAALAVLDAQQARLLGQQTRNDRAISEARNKLSSVTESLNTARNALTRAEQQLTQQKNTPDGKTIVSPEKFPGRSSTNHSIVVSGDPRFAGTIKITTSAVIDNRANLNYLLSHSGLDYKRNILNDRNPVVTEDVEGDKKIYNAEVAEWDKLRQRLLDARNKITSAESAVNSARNNLSARTNEQKHANDALNALLKEKENIRNQLSGINQKIAEEKRKQDELKATKDAINFTTEFLKSVSEKYGAKAEQLAREMAGQAKGKKIRNVEEALKTYEKYRADINKKINAKDRAAIAAALESVKLSDISSNLNRFSRGLGYAGKFTSLADWITEFGKAVRTENWRPLFVKTETIIAGNAATALVALVFSILTGSALGIIGYGLLMAVTGALIDESLVEKANKFWGISYWLHWIKQRPGQGLWIGSQSTHVPRT
modifications: The amino acid sequence of antibiotic PMC-AM1
B2: Colicin Ia (protein, UniProt P06716 1-626, looked up)
Colicin-Ia: MSDPVRITNPGAESLGYDSDGHEIMAVDIYVNPPRVDVFHGTPPAWSSFGNKTIWGGNEWVDDSPTRSDIEKRDKEITAYKNTLSAQQKENENKRTEAGKRLSAAIAAREKDENTLKTLRAGNADAADITRQEFRLLQAELREYGFRTEIAGYDALRLHTESRMLFADADSLRISPREARSLIEQAEKRQKDAQNADKKAADMLAEYERRKGILDTRLSELEKNGGAALAVLDAQQARLLGQQTRNDRAISEARNKLSSVTESLNTARNALTRAEQQLTQQKNTPDGKTIVSPEKFPGRSSTNHSIVVSGDPRFAGTIKITTSAVIDNRANLNYLLSHSGLDYKRNILNDRNPVVTEDVEGDKKIYNAEVAEWDKLRQRLLDARNKITSAESAVNSARNNLSARTNEQKHANDALNALLKEKENIRNQLSGINQKIAEEKRKQDELKATKDAINFTTEFLKSVSEKYGAKAEQLAREMAGQAKGKKIRNVEEALKTYEKYRADINKKINAKDRAAIAAALESVKLSDISSNLNRFSRGLGYAGKFTSLADWITEFGKAVRTENWRPLFVKTETIIAGNAATALVALVFSILTGSALGIIGYGLLMAVTGALIDESLVEKANKFWGI
notes: Wild-type bacterial toxin secreted by E. coli forming ion channels

Tested on: Mycobacterium tuberculosis (H37Rv, clinical drug-resistant strain94120)
Type: cell-based

Row | Molecule | bacteriostatic or bactericidal role | growth of bacteria lawn, strain94120 | growth of bacteria lawn, strain H37Rv, re-culture test
1 | B1 | bactericidal effect rather than simply antibacterial effect | no cell growth; also recorded: no growth of bacteria lawn | still no cell growth; also recorded: always no growth of bacteria lawn
2 | B2 |  |  | quantity of cells growth; also recorded: a mass of bacteria lawn growing
